# Literature values as cited in paper PMC4934914.
# Columns and labels:
# [1] = molecular target: BsHemH (Bacillus subtilis) (UniProt P32396)
# [2] = molecular target: BsSufU (Bacillus subtilis) (UniProt O32163)
# IscS (Escherichia coli) = IscS (Escherichia coli) (UniProt P0A6B7)
# Chain of IscS (Escherichia coli) (P0A6B7 whole entry): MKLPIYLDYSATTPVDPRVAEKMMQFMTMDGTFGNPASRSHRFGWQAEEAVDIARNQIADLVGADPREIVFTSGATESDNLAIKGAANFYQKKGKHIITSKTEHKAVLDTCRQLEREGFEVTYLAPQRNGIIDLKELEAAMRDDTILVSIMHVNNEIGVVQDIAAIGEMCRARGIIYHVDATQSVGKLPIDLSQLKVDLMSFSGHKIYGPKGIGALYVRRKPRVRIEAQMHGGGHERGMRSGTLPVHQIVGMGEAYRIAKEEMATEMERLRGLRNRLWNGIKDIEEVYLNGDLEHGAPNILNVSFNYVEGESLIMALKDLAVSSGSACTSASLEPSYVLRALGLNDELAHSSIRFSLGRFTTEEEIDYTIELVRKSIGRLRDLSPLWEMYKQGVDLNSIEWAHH
# Chain of BsSufU (Bacillus subtilis) (O32163 whole entry): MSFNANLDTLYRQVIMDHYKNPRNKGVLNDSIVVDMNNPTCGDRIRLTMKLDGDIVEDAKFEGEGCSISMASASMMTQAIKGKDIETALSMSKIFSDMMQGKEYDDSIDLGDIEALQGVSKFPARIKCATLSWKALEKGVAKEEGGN
# Chain of BsHemH (Bacillus subtilis) (P32396 whole entry): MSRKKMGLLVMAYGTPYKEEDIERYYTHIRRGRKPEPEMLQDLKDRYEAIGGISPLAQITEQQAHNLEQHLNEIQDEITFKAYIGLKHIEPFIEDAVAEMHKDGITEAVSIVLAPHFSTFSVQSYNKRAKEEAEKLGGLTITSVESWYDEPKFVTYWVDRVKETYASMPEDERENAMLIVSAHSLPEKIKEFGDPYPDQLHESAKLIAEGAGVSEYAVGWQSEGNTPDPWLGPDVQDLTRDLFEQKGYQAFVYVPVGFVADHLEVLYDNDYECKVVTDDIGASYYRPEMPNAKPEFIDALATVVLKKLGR
# Chain of CyaY (P27838 whole entry): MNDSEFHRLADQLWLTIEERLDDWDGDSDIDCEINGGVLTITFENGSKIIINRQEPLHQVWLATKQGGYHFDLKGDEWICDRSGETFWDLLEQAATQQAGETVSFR
# Chain of BsFra (frataxin) (Q797E6 whole entry): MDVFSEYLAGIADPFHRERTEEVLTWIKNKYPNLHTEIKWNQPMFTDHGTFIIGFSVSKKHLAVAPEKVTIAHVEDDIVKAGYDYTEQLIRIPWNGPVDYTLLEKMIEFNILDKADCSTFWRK
# Chain of BsSufS (O32164 whole entry): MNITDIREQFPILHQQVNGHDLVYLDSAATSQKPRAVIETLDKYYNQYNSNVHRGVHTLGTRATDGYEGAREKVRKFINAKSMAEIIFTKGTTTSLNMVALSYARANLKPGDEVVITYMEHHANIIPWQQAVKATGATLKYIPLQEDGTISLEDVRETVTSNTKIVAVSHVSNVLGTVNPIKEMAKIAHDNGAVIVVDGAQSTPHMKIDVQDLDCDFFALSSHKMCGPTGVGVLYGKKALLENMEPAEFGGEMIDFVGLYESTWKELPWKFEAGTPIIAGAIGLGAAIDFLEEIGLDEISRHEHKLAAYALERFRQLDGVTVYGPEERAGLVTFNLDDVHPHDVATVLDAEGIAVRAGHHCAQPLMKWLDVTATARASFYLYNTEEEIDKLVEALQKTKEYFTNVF
substance,measurement,setting,value
BsFra (frataxin) (from UniProt Q797E6),Kd,[1],1630 nM
BsSufS (from UniProt O32164),Kd,[2],2630 nM
CyaY (from UniProt P27838),Kd,IscS (Escherichia coli),18500 nM
